Assay results as given in the supplement of paper PMC10065799, “High-throughput profiling of sequence recognition by tyrosine kinases and SH2 domains using bacterial peptide display” (eLife, 2023).

Tests used:
AncSZ = test: phosphorylation enrichment, bacterial display (enrichment ratio); higher = better substrate or ligand; peptides without Tyr show the background
EPHB1 = EPHB1 (UniProt P54762); test: as above
EPHB2 = EPHB2 (UniProt P29323); test: as above
FGFR1 = FGFR1 (UniProt P11362); test: as above
FGFR3 = FGFR3 (UniProt P22607); test: as above
Fer (mouse) = test: as above
Fes = Fes (UniProt P07332); test: as above
Fyn = Fyn (UniProt P06241); test: as above
Hck = Hck (UniProt P08631); test: as above
Jak2 = Jak2 (UniProt O60674); test: as above
MERTK = MERTK (UniProt Q12866); test: as above
c-Abl (mouse) = test: as above
c-Src = test: as above
Grb2 SH2 = Grb2 SH2 (UniProt P62993); test: SH2 binding enrichment of the phosphorylated peptide, bacterial display (enrichment ratio); higher = better substrate or ligand; peptides without Tyr show the background
SHP2-C SH2 = test: as above
c-Src SH2 = test: as above
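Throughout, for SH2 binding enrichment of the phosphorylated peptide, bacterial display: peptide library displayed on the E. coli surface as eCPX fusions, selected cells deep-sequenced, score is each peptide's frequency after selection divided by its frequency in the input.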
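Throughout, for phosphorylation enrichment, bacterial display: 11-residue human phosphosite peptides and single-mutation variants displayed on the E. coli surface, counted by deep sequencing, each peptide's frequency after selection divided by its frequency in the unselected input library; frequency after pTyr selection over input frequency; kinase dosed for 20-30% of maximal phosphorylation in three min.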

Chain of Fyn (P06241 whole entry, looked up): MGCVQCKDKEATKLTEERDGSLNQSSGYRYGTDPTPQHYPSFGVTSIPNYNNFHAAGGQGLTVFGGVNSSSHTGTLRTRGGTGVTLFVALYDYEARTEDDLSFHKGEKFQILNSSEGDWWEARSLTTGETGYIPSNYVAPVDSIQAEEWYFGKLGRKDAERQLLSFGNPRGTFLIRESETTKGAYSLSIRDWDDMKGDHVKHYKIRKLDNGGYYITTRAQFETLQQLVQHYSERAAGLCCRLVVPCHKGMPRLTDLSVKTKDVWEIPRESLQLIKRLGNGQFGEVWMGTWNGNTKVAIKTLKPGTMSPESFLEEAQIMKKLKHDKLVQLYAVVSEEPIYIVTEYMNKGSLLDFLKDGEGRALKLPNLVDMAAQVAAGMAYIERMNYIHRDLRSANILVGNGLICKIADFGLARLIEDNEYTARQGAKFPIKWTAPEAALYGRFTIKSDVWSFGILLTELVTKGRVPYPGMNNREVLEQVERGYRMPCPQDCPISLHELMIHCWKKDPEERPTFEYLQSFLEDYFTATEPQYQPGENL
Chain of Fes (P07332 whole entry, looked up): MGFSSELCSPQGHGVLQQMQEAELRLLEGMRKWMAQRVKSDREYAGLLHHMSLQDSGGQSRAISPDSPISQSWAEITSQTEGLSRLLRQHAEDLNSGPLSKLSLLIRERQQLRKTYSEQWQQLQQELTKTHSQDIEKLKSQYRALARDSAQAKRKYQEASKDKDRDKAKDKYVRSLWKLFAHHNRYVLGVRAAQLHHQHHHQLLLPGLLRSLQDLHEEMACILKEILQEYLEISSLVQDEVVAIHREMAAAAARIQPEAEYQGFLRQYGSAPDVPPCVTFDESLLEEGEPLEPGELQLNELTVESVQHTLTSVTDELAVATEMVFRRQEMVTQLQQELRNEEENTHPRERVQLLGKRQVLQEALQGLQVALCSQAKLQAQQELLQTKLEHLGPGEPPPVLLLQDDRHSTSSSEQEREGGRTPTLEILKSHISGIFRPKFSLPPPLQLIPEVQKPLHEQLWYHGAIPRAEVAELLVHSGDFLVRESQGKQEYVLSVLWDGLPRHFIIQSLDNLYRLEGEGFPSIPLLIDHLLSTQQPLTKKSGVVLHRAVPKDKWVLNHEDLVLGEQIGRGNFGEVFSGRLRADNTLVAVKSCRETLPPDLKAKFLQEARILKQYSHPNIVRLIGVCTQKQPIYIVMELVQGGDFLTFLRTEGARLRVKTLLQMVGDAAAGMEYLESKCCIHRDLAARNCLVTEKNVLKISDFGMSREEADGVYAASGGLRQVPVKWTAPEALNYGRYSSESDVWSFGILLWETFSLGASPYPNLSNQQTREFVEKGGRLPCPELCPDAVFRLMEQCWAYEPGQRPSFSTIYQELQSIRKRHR
Chain of Hck (P08631 whole entry, looked up): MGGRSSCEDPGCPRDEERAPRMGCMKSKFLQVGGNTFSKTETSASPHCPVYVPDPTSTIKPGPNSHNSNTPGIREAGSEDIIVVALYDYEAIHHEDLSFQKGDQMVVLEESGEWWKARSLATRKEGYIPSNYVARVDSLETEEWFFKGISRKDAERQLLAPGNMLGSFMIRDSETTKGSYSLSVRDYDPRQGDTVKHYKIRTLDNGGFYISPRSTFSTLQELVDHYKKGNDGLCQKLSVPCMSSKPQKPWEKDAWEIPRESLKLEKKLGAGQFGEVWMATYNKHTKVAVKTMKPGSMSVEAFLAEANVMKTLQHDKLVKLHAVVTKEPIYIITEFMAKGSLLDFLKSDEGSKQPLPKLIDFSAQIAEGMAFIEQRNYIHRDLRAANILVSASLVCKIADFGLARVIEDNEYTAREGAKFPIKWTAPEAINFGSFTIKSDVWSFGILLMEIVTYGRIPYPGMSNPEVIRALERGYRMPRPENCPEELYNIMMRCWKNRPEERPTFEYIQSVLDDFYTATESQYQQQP
Chain of Jak2 (O60674 whole entry, looked up): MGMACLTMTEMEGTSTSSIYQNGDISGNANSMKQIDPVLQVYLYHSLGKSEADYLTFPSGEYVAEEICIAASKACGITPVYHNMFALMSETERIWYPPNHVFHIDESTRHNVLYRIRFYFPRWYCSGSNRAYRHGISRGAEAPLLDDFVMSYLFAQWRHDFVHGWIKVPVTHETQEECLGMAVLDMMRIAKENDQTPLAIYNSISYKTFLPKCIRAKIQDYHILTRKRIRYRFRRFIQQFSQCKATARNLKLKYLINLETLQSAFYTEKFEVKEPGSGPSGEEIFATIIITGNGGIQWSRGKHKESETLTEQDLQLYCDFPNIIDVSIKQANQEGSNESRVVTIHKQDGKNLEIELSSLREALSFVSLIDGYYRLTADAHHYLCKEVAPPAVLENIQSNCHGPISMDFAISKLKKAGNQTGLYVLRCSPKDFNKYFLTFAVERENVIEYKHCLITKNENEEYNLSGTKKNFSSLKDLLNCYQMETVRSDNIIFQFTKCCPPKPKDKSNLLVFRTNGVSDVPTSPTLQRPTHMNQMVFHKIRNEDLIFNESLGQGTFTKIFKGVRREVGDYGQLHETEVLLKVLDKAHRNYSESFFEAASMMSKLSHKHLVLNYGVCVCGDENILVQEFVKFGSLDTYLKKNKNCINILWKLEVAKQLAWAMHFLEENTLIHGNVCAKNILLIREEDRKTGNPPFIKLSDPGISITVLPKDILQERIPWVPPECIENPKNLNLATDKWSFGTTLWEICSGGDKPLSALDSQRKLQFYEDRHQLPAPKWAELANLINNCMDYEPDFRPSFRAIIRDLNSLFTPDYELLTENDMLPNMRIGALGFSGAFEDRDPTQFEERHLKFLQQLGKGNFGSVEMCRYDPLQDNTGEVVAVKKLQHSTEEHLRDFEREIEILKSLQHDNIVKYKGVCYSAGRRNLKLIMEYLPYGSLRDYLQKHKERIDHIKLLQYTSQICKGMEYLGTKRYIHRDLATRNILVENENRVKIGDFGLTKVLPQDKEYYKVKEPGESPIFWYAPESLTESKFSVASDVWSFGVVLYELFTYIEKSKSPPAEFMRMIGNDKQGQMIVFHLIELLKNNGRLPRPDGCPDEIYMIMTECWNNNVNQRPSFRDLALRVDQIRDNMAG
Chain of EPHB1 (P54762 whole entry, looked up): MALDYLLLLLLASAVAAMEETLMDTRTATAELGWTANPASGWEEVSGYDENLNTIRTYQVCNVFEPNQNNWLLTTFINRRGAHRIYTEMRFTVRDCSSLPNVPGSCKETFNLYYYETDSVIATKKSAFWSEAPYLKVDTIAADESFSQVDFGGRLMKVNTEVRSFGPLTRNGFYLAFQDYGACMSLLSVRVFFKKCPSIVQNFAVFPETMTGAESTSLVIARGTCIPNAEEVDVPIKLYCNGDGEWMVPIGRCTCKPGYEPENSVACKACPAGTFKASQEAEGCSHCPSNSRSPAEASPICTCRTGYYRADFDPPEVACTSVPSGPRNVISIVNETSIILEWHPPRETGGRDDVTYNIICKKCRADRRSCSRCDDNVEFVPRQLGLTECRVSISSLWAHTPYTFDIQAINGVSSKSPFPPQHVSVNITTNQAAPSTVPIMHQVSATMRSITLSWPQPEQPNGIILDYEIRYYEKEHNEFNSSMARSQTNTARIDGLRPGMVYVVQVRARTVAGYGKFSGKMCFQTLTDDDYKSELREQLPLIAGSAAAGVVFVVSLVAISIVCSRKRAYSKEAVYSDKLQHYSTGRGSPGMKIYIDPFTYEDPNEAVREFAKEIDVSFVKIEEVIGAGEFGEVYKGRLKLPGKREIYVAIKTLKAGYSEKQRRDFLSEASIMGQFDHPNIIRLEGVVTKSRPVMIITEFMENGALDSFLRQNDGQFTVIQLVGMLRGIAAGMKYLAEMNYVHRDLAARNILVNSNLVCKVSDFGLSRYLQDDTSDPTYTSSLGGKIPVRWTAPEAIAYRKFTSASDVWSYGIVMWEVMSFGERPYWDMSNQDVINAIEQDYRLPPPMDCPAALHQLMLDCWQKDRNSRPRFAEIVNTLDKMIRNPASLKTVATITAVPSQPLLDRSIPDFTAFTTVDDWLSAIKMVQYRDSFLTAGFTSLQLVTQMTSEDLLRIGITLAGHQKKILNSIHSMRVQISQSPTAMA
Chain of EPHB2 (P29323 whole entry, looked up): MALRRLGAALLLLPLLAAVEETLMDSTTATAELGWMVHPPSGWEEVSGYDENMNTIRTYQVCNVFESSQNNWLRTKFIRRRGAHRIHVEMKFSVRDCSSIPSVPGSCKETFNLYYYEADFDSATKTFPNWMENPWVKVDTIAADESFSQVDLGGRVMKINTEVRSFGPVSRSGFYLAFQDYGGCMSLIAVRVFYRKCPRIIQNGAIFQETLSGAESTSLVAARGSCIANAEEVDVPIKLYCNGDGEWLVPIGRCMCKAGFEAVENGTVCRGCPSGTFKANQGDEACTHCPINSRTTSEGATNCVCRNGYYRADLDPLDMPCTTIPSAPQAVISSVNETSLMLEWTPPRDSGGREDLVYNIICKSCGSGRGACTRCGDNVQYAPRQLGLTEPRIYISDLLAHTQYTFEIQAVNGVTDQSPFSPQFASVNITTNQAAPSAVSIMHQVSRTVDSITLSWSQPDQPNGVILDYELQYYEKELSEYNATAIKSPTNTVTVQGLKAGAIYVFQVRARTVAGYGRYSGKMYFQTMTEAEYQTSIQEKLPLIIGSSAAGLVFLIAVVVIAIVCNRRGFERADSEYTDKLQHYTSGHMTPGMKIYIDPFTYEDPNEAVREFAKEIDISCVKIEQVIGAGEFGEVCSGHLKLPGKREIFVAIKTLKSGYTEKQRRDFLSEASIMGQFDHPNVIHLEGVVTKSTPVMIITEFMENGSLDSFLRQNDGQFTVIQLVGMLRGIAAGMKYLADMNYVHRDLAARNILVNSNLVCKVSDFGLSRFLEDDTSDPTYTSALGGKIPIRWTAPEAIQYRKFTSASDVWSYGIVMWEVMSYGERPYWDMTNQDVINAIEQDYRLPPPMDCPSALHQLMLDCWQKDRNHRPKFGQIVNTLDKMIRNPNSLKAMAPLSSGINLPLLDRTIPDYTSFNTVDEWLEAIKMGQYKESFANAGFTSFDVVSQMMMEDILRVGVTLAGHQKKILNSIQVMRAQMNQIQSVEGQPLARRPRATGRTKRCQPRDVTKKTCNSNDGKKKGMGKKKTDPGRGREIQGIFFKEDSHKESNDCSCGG

Sequence	SH2 binding enrichment (Grb2 SH2)	SH2 binding enrichment (SHP2-C SH2)	SH2 binding enrichment (c-Src SH2)	phosphorylation enrichment (AncSZ)	phosphorylation enrichment (EPHB1)	phosphorylation enrichment (EPHB2)	phosphorylation enrichment (FGFR1)	phosphorylation enrichment (FGFR3)	phosphorylation enrichment (Fer (mouse))	phosphorylation enrichment (Fes)	phosphorylation enrichment (Fyn)	phosphorylation enrichment (Hck)	phosphorylation enrichment (Jak2)	phosphorylation enrichment (MERTK)	phosphorylation enrichment (c-Abl (mouse))	phosphorylation enrichment (c-Src)
YAGRDYSLDEF [MYOF_Y1705_G1701A]	0.757	0.665	0.909	1.06	0.658	0.536	0.54	0.686	0.588	1.14	0.595	0.549	1.37	0.52	0.928	0.878
GKGGSYSQAAS [HLA-B_Y344_C349S]	0.609	0.785	0.434	0.548	0.47	0.41	0.515	0.52	0.441	0.819	0.362	0.462	0.651	0.493	0.622	0.529
YIRKDYEACKA [BBS4_Y48]	0.982	1.11	0.796	0.553	0.469	0.398	0.466	0.38	0.403	0.464	0.445	0.404	0.407	0.398	0.374	0.386
GVTLLYFGRDN [ADGRD1_Y85_Y89D_YF]	1.63	1.19	1.16	0.887	0.633	0.424	0.488	0.737	0.481	1.04	0.353	0.516	0.937	0.321	0.643	0.398
RLRVVYPWTQR [HBB_Y36_L33R]	1.06	0.44	0.636	0.688	0.367	0.363	0.422	0.568	0.335	0.711	0.6	0.364	0.494	0.819	0.484	0.382
DPHECYAKVFN [ALB_Y394_D399N]	1.11	1.81	1.4	0.844	0.549	0.586	0.589	0.643	0.529	0.952	0.552	0.81	0.847	0.504	0.91	0.624
PSGPAYRGAVP [ASAH1_Y43_T42A]	0.72	0.455	0.49	0.664	0.74	0.431	0.809	0.423	0.533	0.759	0.539	0.459	0.736	0.476	0.758	0.506
FTNRNYDLDYD [MYC_Y12]	0.799	0.517	3.05	1.13	0.666	0.637	0.69	0.591	0.58	1.12	0.607	0.594	1.3	0.58	0.713	0.586
LARDMHDKEFF [MET_Y1230_Y1230H_YF]	0.884	0.668	0.423	1.08	0.723	0.757	0.625	0.661	0.362	0.864	0.821	0.812	1.15	0.907	0.91	0.671
NQNIGYELGHR [KCNN3_Y268_K269E]	0.892	0.683	0.672	0.496	0.449	0.318	0.343	0.403	0.289	0.486	0.528	0.37	0.348	0.276	0.425	0.305
PPNSPYIGSSP [KCNT1_Y740]	0.783	0.557	0.371	0.501	0.493	0.468	0.537	0.362	0.382	0.557	0.464	0.457	0.417	0.422	0.572	0.352
APTSGYREFVH [IL4R_Y575_Q576R]	0.882	0.561	0.518	0.681	0.378	0.342	0.462	0.474	0.485	0.561	0.422	0.379	0.441	0.483	0.508	0.397
FSTDCYRVGGH [NTRK2_Y707_Y706C_YF]	0.827	0.745	0.636	1.08	0.592	0.576	0.599	0.638	0.452	1.12	0.545	0.646	1.05	0.652	0.934	0.608
LFHENYNAGTF [CFI_Y421_I416L_YF]	0.72	0.856	0.539	0.928	0.848	1.23	0.634	0.941	0.822	1.11	0.683	0.596	1.07	0.654	0.597	0.649
MTKEQYIKMNR [ARFGEF2_Y797]	0.823	0.672	0.454	0.595	0.365	0.357	0.458	0.445	0.346	0.558	0.397	0.407	0.563	0.348	0.335	0.369
FQGGTYSKACT [FGG_Y380_S384C_YF]	0.918	0.746	0.783	0.528	0.404	0.366	0.448	0.439	0.46	0.589	0.35	0.473	0.503	0.446	0.633	0.447
HKNNNYEPSLF [BRCA2_Y57_N60S]	0.931	0.72	0.866	1.13	0.689	0.766	0.793	0.891	0.791	1	0.652	0.563	0.897	0.654	0.659	0.658
EYGRRYGFSCQ [CCDC93_Y209_R213C]	0.725	0.492	0.418	0.931	0.59	0.594	0.526	0.696	0.526	1.12	0.53	0.617	1.2	0.476	0.881	0.483
WVYNHYRWIIW [BRCA2_Y2624]	1.29	1.18	0.509	0.937	0.521	0.597	0.499	0.702	0.431	1.11	0.375	0.461	1.14	0.301	0.841	0.415

The next lines start with results.

SH2 binding enrichment (Grb2 SH2)	SH2 binding enrichment (SHP2-C SH2)	SH2 binding enrichment (c-Src SH2)	Sequence	phosphorylation enrichment (AncSZ)	phosphorylation enrichment (EPHB1)	phosphorylation enrichment (EPHB2)	phosphorylation enrichment (FGFR1)	phosphorylation enrichment (FGFR3)	phosphorylation enrichment (Fer (mouse))	phosphorylation enrichment (Fes)	phosphorylation enrichment (Fyn)	phosphorylation enrichment (Hck)	phosphorylation enrichment (Jak2)	phosphorylation enrichment (MERTK)	phosphorylation enrichment (c-Abl (mouse))	phosphorylation enrichment (c-Src)
0.79	0.609	0.513	ETKKQYDSFTF [TMED3_Y85_YF]	0.7	0.422	0.397	0.411	0.643	0.407	0.9	0.517	0.457	0.76	0.424	0.681	0.564
1.89	1.4	0.841	LSGVIYVILRK [PMP22_Y153]	1.01	0.46	0.23	0.443	1.11	0.504	0.823	0.279	0.513	0.633	0.364	0.923	0.484
0.939	0.815	0.76	STDDGCIDLQF [TMEM230_Y29_Y29C]	1.14	0.492	0.636	0.613	0.797	0.55	1.13	0.56	0.665	0.979	0.646	0.668	0.503
0.895	0.738	0.476	KDHPDYKYQAR [SOX10_Y171_P175A]	0.606	0.427	0.416	0.416	0.563	0.448	0.696	0.434	0.496	0.58	0.39	0.609	0.415
0.669	0.659	0.428	ADRNHYRRFRR [YBX1_Y145_P149R_YF]	0.564	0.462	0.447	0.509	0.721	0.435	0.561	0.57	0.544	0.579	0.672	0.507	0.548
0.995	0.657	0.441	FTDPFYDFEIE [ZC3H18_Y372_A368T_YF]	1.37	1.54	0.867	0.665	0.783	1.03	1.54	4.1	0.823	1.66	0.777	1.05	4.96
0.967	0.825	0.974	NHFKIYNLCAE [PTEN_Y68_YF]	0.882	0.412	0.516	0.676	0.647	0.535	0.766	2.61	1.12	0.577	0.584	0.52	3.12
0.701	0.572	0.484	RLDGEYFTLQI [TP53_Y327_P322R]	1.89	0.748	0.716	5.82	4.05	0.72	1.54	1.34	0.772	2.46	0.538	1.2	2.16
0.856	0.52	0.802	HRDSSYFWEIE [RAF1_Y340_Q335H_YF]	1.34	0.59	0.629	1.02	0.984	0.497	1.8	0.579	0.638	2.02	0.628	1.13	0.888
1.36	4.2	7.58	CTTIHYNYVCN [TP53_Y234_M237V]	0.904	0.616	0.645	0.685	0.648	0.696	0.949	0.556	0.514	0.828	0.498	0.595	0.455
